The source of these data is patent US20210380660A1 (OREGON HEALTH AND SCIENCE UNIVERSITY, published 2021).

Assay [1] addresses T1, recombinant human CD74 (C27S) (human, UniProt P04233 1-216).
T1 chain: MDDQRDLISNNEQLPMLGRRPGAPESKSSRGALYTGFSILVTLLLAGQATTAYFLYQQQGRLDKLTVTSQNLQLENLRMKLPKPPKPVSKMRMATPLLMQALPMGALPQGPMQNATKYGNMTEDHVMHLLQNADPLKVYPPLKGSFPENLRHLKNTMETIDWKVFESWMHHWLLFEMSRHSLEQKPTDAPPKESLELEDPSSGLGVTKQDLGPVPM
As to the kind of experiment: competition ELISA against MIF for rhCD74.

Assay [2] addresses T1, recombinant human CD74 (C27S). As to the kind of experiment: direct binding ELISA, rhCD74 (C27S) coated, construct detected with anti-MOG antibody, one-site fit. Background: ELISA stands for enzyme-linked immunosorbent assay.
Assay [3] has the same target. Briefly: competition ELISA: MIF coated, rhCD74 with serially diluted construct, bound rhCD74 detected.
For assay [4] the target is unchanged. As to the kind of experiment: direct binding ELISA on rhCD74 (legend of FIG. 6A).
The target in another assay is T2, mouse CD74 (mouse, UniProt P04441-2 1-215, limits assumed).
T2 construct: Native protein pulled down from splenocyte lysate; also called mCD74; immunoprecipitated mouse CD74
T2 sequence (looked up): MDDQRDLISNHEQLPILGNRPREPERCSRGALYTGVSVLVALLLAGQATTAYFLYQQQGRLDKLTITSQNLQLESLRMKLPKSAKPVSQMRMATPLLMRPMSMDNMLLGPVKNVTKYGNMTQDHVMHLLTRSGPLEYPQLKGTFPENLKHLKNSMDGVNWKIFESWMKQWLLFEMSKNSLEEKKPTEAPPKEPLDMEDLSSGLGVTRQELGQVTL
Briefly: competition with FITC-labelled P2 peptide on immunoprecipitated mouse CD74, gel densitometry, one-site fit. The protocol:
For competition experiments, ELISA plates were coated with MIF at room temperature at a concentration of 0.5 μg/ml in TBS. Plates were then blocked overnight with 5% BSA in TBS and 0.0125% T20 followed by the addition of a competitive mix containing rhCD74 with serially diluted DRα1 constructs prepared in 5% BSA/TBS plus 0.0125% T20 for 1.5 hours at 25° C. Bound rhCD74 was detected with a monoclonal antibody that specifically recognizes human CD74 in a region away from the putative MIF/D-DT binding site. Absorbance at 450 nm was determined and data were analyzed with Prism, the parameters were calculated with the competition equation included in the software. For competition between DRα1-hMOG-35-55 and P2 peptide (see next section), mouse CD74 was immunoprecipitated from DR*1501 Tg mouse splenocytes and a competition experiment was set. 2.5 μl of P2 peptide were used with increasing concentrations of DRα1-hMOG-35-55 protein. Bound peptide was eluted from the immunoprecipitation with 2% SDS and analyzed in a 16.5% PAG Tris/Tricine. The gel was scanned for FITC and fluorescence was quantified by densitometry. P2 fluorescence vs. DRα1 competitor was plotted and data analyzed with Prism. The relative density values were fit to a One-binding site equation. […]

B1: DRhQ (other)
chain: MEVGWYRPPFSRVVHLYRNGKGGGGSLVPRGSGGGGIKEEHVIIQAEFYQNPDQSGEFMFDFDGDEIFHVDMAKKETVWRLEEFGRFASFEAQGALANIAVDKANLEIMTKRSNYTPITN
notes: Made in E. coli; also called DRα1-hMOG-35-55 with glutamine substitution; L50Q
As a reminder, the IC50 is the concentration that inhibits the measured activity by half. The term Kd denotes a measure of binding affinity in units of concentration. Take B1: the IC50 in assay [1] was determined as 280 nM; in assay [3], 298 nM. The Kd came to 91.1 nM in assay [2] and 89 nM in assay [4].

B2: DRα1-mMOG-35-55 (other)
chain: MEVGWYRSPFSRVVHLYRNGKGGGGSLVPRGSGGGGIKEEHVIIQAEFYLNPDQSGEFMFDFDGDEIFHVDMAKKETVWRLEEFGRFASFEAQGALANIAVDKANLEIMTKRSNYTPITN
notes: also called DRα1 with mouse MOG-35-55 peptide
As to B2, the IC50 in assay [3] turned out to be 937 nM.

B3: DRmQ (other)
chain: MEVGWYRSPFSRVVHLYRNGKGGGGSLVPRGSGGGGIKEEHVIIQAEFYQNPDQSGEFMFDFDGDEIFHVDMAKKETVWRLEEFGRFASFEAQGALANIAVDKANLEIMTKRSNYTPITN
notes: also called DRα1-mMOG-35-55 with glutamine substitution
As to B3, the concentration for half-maximal inhibition (IC50) in assay [3] was determined as 828 nM.

B4: DRα1-hMOG-35-55 (other)
chain: MEVGWYRPPFSRVVHLYRNGKGGGGSLVPRGSGGGGIKEEHVIIQAEFYLNPDQSGEFMFDFDGDEIFHVDMAKKETVWRLEEFGRFASFEAQGALANIAVDKANLEIMTKRSNYTPITN
notes: also called DRα1-human(h)MOG-35-55; DRα1 with human MOG-35-55 peptide
For B4, the results for the IC50 in assay [1] and in assay [3] were 1600 nM and 1640 nM, respectively. Moreover, the Kd was 702 nM in assay [2], 750 nM in the assay with mouse CD74 and 650 nM in assay [4].
